From IntAct's records for PubMed 22328087 come the findings set out here.

The labels stand for the following.
B1: Membrane protein MLC1 (Homo sapiens), Q15049 (parent)
chain: MTQEPFREELAYDRMPTLERGRQDPASYAPDAKPSDLQLSKRLPPCFSHKTWVFSVLMGSCLLVTSGFSLYLGNVFPAEMDYLRCAAGSCIPSAIVSFTVSRRNANVIPNFQILFVSTFAVTTTCLIWFGCKLVLNPSAININFNLILLLLLELLMAATVIIAARSSEEDCKKKKGSMSDSANILDEVPFPARVLKSYSVVEVIAGISAVLGGIIALNVDDSVSGPHLSVTFFWILVACFPSAIASHVAAECPSKCLVEVLIAISSLTSPLLFTASGYLSFSIMRIVEMFKDYPPAIKPSYDVLLLLLLLVLLLQAGLNTGTAIQCVRFKVSARLQGASWDTQNGPQERLAGEVARSPLKEFDKEKAWRAVVVQMAQ

In the first assay the parent is B1. Conditions: with at1b1_human ATP1B1, P05026.
MTQEPFREELAYDRMPTLERGRQDPASYAPDAKPSDLQLSKRLPPCFSHKTWVFSVLMGSCLLVTSGFSLYLGNVFPAEMDYLRCAAGSCIPSAIVSFTVSRRNANVIPNFQILFVSTFAVTTTRLIWFGCKLVLNPSAININFNLILLLLLELLMAATVIIAARSSEEDCKKKKGSMSDSANILDEVPFPARVLKSYSVVEVIAGISAVLGGIIALNVDDSVSGPHLSVTFFWILVACFPSAIASHVAAECPSKCLVEVLIAISSLTSPLLFTASGYLSFSIMRIVEMFKDYPPAIKPSYDVLLLLLLLVLLLQAGLNTGTAIQCVRFKVSARLQGASWDTQNGPQERLAGEVARSPLKEFDKEKAWRAVVVQMAQ [C125R]: the “effect of a mutation on the interaction” value was “disrupting interaction”.
As for MTQEPFREELAYDRMPTLERGRQDPASYAPDAKPSDLQLSKRLPPCFSHKTWVFSVLMGSCLLVTSGFSLYLGNVFPAEMDYLRCAAGSCIPSAIVSFTVSRRNANVIPNFQILFVSTFAVTTTCLIWFGCKLVLNPSAININFNLILLLLLELLMAATVIIAARSSEEDCKKKKGSMSDSANILDEVPFPARVLKSYSVVEVIAGISAVLGGIIALNVDDSVSGPHLSVTFFWILVACFPSAIASHVAAECPSKCLVEVLIAISSLTSPLLFTASGYLLFSIMRIVEMFKDYPPAIKPSYDVLLLLLLLVLLLQAGLNTGTAIQCVRFKVSARLQGASWDTQNGPQERLAGEVARSPLKEFDKEKAWRAVVVQMAQ [S280L], the “effect of a mutation on the interaction” value is “disrupting interaction”.

Variants of B1 are the subject of a further assay. The settings on record: with at1b1_human ATP1B1, P05026. This is another data set of the same source.
Regarding MTQEPFREELAYDRMPTLERGRQDPASYAPDAKPSDLQLSKRLPPCFSHKTWVFSVLMGSCLLVTSGFSLYLGNVFPAEMDYLRCAAGSCIPSAIVSFTVSRRNANVIPNFQILFVSTFAVTTTCLIWFGCKLVLNPSAININFNLILLLLLELLMAATVIIAARSSEEDCKKKKGSMSDSANILDEVPFPARVLKSYSVVEVIAGISAVLGGIIALNVDDSVSGPHLSVTFFWILVACFPSAIASHVAAECPSKCLVEVLIAISSLTSPLLFTASGYLLFSIMRIVEMFKDYPPAIKPSYDVLLLLLLLVLLLQAGLNTGTAIQCVRFKVSARLQGASWDTQNGPQERLAGEVARSPLKEFDKEKAWRAVVVQMAQ [S280L], the “effect of a mutation on the interaction” value is recorded as “decreasing interaction”.
As for MTQEPFREELAYDRMPTLERGRQDPASYAPDAKPSDLQLSKRLPPCFSHKTWVFSVLMGSCLLVTSGFSLYLGNVFPAEMDYLRCAAGSCIPSAIVSFTVSRRNANVIPNFQILFVSTFAVTTTCLIWFGCKLVLNPSAININFNLILLLLLELLMAATVIIAARSSEEDCKKKKGSMSDSANILDEVPFPARVLKSYSVVEVIAGISAVLGGIIALNVDDSVSGPHLSVTFFWILVACFPSAIARHVAAECPSKCLVEVLIAISSLTSPLLFTASGYLSFSIMRIVEMFKDYPPAIKPSYDVLLLLLLLVLLLQAGLNTGTAIQCVRFKVSARLQGASWDTQNGPQERLAGEVARSPLKEFDKEKAWRAVVVQMAQ [S246R], the “effect of a mutation on the interaction” value is on record as “decreasing interaction”.
